Patent US20060264369, “Aptamers to von Willebrand Factor and their use as thrombotic disease therapeutics” (published 2006)

target: von Willebrand factor A1 domain (Homo sapiens, UniProt P04275 SEQ:13-246); assay: filter; DPBS, 0.1 mg/mL BSA, RT; conditions: label: 5'-32P
Description: Based on this initial screen, KD's were determined for 16 of the best vWF dependent binding sequences using the dot blot assay. […] A 6 point protein titration of human vWF A1 domain (SEQ ID NO 5) was used in the dot blot assay (333 nM, 100 nM, 33 nM, 10 nM, 3 nM, 0 nM) in 1× DPBS plus 0.1 mg/mL BSA at room temperature for 30 minutes. KD values were calculated by fitting the equation y=(max/(1+K/protein))+yint using KaleidaGraph (KaleidaGraph v. 3.51, Synergy Software).

Row | Binder | Kd [nM]
1 | AMX206.F9 (mixed, 2'-OH purines, deoxy pyrimidines) DNA: GGAGCGCACTCAGCCACGGAGCGTCGGTGATGGATTAGCGCGGCTCCGTGGTACACATTTCGACCTCTCTGCTAGC | 139
2 | AMX205.F9 (mixed, 2'-OH purines, deoxy pyrimidines) DNA: GGAGCGCACTCAGCCACGGAGCGTCGGTGATGGATTAGCGCGGCTCCGTGGTACGCCTTTCGACCTCTCTGCTAGC | 145
3 | AMX206.E7 (mixed, 2'-OH purines, deoxy pyrimidines) DNA: GGAGCGCACTCAGCCACGGAGCGTCGGTGATGGATTAGCGCGGCTCCGTGGTACACCTTTCGACCTCTCTGCTAGC | 151
4 | AMX206.H9 (mixed, 2'-OH purines, deoxy pyrimidines) DNA: GGAGCGCACTCAGCCACGGAGCGTCGGTGATGGATTAGCGCGGTTCCGTGGTACACCTTTCGACCTCTCTGCTAGC | 109
5 | AMX203.D6 (mixed, 2'-OH purines, deoxy pyrimidines) DNA: GGAGCGCACTCAGCCACAGTTCTGTCGGTGATGAATTAGCGCGAGAGCTGTGGGACGTTTCGACCTCTCTGCTAGC | 523
6 | AMX203.A1 (mixed, 2'-OH purines, deoxy pyrimidines) DNA: GGAGCGCACTCAGCCACAGTTCTGTCGGTGATGAATTAGCGCGGGAGCTGTGGGACGTTTCGACCTCTCTGCTAGC | 1150
7 | AMX205.H8 (mixed, 2'-OH purines, deoxy pyrimidines) DNA: GGAGCGCACTCAGCCACAAACGGACGGTGATGGATTAACGCGGGTTTATGGCAAGGTTTCGACCTCTCTGCTAGC | 788
8 | AMX205.H11 (mixed, 2'-OH purines, deoxy pyrimidines) DNA: GGAGCGCACTCAGCCACGGCACGACGGTGATGGATTAGCGCGGTGTCGGTGGTGTCATTTCGACCTCTCTGCTAGC | 144
9 | AMX206.A10 (mixed, 2'-OH purines, deoxy pyrimidines) DNA: GGAGCGCACTCAGCCACGGCATGACGGTGATGAATTAGCGCGGTGTCGGTGGTGTCATTTCGACCTCTCTGCTAGC | 111
10 | AMX206.D7 (mixed, 2'-OH purines, deoxy pyrimidines) DNA: GGAGCGCACTCAGCCACGGCACGACGGTGATGAATTAGCGCGGTGTCGGTGGTGTTATTTCGACCTCTCTGCTAGC | 187
11 | AMX205.D11 (mixed, 2'-OH purines, deoxy pyrimidines) DNA: GGAGCGCACTCAGCCACGGCACGACGGTGATGAATTAGCGCGGTGTCGGTGGTGTCATTTCGACCTCTCTGCTAGC | 124

target: von Willebrand factor A1 domain (human) (Homo sapiens, UniProt P04275 SEQ:13-246); assay: filter; 100 nM protein; conditions: not given
Description: All unique clones were assayed in a 3-point dot blot screen (no protein target control, 100 nM human vWF A1 domain (SEQ ID NO 5), or 100 nM rabbit vWF A1 domain (SEQ ID NO 6). The data are presented in the third and fourth columns of Table 14 below as the ratio of the fraction of the aptamer bound to the nitrocellulose in the presence of the target protein to the fraction of aptamer bound in the absence of the target protein.

Row | Binder | binding signal
12 | AMX202.H10 (ssDNA) DNA: CTACCTACGATCTGACTAGCGGAATGAGAAGGCTGGTGGATTGCTCAGGTCTGCTGGCTGCTTACTCTCATGTAGTTCC | 1.92 ratio to no protein
13 | AMX202.D6 (ssDNA) DNA: CTACCTACGATCTGACTAGCGGAATGAGAAGGCTGATGGATTGCTCAGGTCTGCTGGCTGCTTACTCTCATGTAGTTCC | 1.94 ratio to no protein
14 | AMX202.A3 (ssDNA) DNA: CTACCTACGATCTGACTAGCGGAATGAGAGCGCTGATGGATTGCTCAGGTCTGCTGGCTGCTTACTCTCATGTAGTTCC | 2.28 ratio to no protein
15 | AMX202.B8 (ssDNA) DNA: CTACCTACGATCTGACTAGCGGAATGAGTATGCTGATGGATTGCTCAGGTCTGCTGGCTGCTTACTCTCATGTAGTTCC | 1.66 ratio to no protein
16 | AMX199.F11 (ssDNA) DNA: CTACCTACGATCTGACTAGCGAAACACTAGGTTGGTTAGGATTGGTGTGTTTCTGCTCTGCTTACTCTCATGTAGTTCC | 1.44 ratio to no protein
17 | AMX199.F8 (ssDNA) DNA: CTACCTACGATCTGACTAGCAAGGGGATTGGCTCCGGGTCTGGCGTGCTTGGCACCTCTGGCTTACTCTCATGTAGTTCC | 1.78 ratio to no protein
18 | AMX199.B6 (ssDNA) DNA: CTACCTACGATCTGACTAGCAAGGGGATTGGCTCCGGGTCTGGCGTGCTTGGTACCTCCGGCTTACTCTCATGTAGTTCC | 2.01 ratio to no protein
19 | AMX200.E10 (ssDNA) DNA: CTACCTACGATCTGACTAGCAAGGGGATTGGCTCCGGGTCTGGCGTGCTCGGCACCTTTGGCTTACTCTCATGTAGTTCC | 1.69 ratio to no protein
20 | AMX199.D8 (ssDNA) DNA: CTACCTACGATCTGACTAGCAAGGGGATTGGCTCCGGGTCTGGCGTGCTTGGCATCTTCGGCTTACTCTCATGTAGTTCC | 1.89 ratio to no protein
21 | AMX202.F6 (ssDNA) DNA: CTACCTACGATCTGACTAGCAAGGGGATTGGCTCCGGGTCTGGCGTGCTCGGCACCTTCGGCTTACTCTCATGTAGTTCC | 1.49 ratio to no protein
22 | AMX200.A11 (ssDNA) DNA: CTACCTACGATCTGACTAGCTGAGTAGTTAGTAACTTTTTATTATGGTTTGGTGGGTCTGGCTTACTCTCATGTAGTTCC | 1.49 ratio to no protein
23 | AMX200.H8 (ssDNA) DNA: CTACCTACGATCTGACTAGCTGAGTAGTCAGTAATTTTTTATTATGGTTTGGTGGGCCTGGCTTACTCTCATGTAGTTCC | 1.86 ratio to no protein

target: von Willebrand factor full length (Homo sapiens, UniProt P04275 SEQ:764-2813); assay: filter; conditions: tags: Calbiochem 681300
Description: For KD determination, chemically synthesized aptamers were purified using denaturing polyacrylamide gel electrophoresis, 5′end labeled with γ-³²P ATP and were tested for direct binding to full length human vWF (Calbiochem Cat.# 681300, La Jolla, Calif.). An 8 point protein titration was used in the dot blot binding assay (100 nM, 30 nM, 10 nM, 3 nM, 1 nM, 300 pM, 100 pM, 0 pM)) in 1× Dulbecco's PBS containing […] (final volume of 50 uL) for 30 minutes at room temperature. KD values were calculated by fitting the equation y=(max/(1+K/protein))+yint using KaleidaGraph (KaleidaGraph v. 3.51, Synergy Software).

Row | Binder | Kd [nM]
24 | GCGUGCAGUGCCUUCGGCCGTGCGGTGCCUCCGUCACGC (mixed, 2'-OMe at 1-4,8-18,20,22,27,28,30,33,34,36-39, rest deoxy; PS between 4 and 5; 3'-idT) [ARC1362] | 9.9
25 | GCGUGCAGUGCCUUCGGCCGTGCGGTGCCUCCGUCACGC (mixed, 2'-OMe at 1-4,8-18,20,22,27,28,30,33,34,36-39, rest deoxy; PS between 21 and 22; 3'-idT) [ARC1369] | 16.3
26 | GCGUGCAGUGCCUUCGGCCGTGCGGTGCCUCCGUCACGC (mixed, 2'-OMe at 1-4,8-18,20,22,27,28,30,33,34,36-39, rest deoxy; PS between 30 and 31; 3'-idT) [ARC1377] | 7.4
27 | GCGUGCAGUGCCUUCGGCCGTGCGGTGCCUCCGUCACGC (mixed, 2'-OMe at 1-4,8-18,20,22,27,28,30,33,34,36-39, rest deoxy; PS between 28 and 29; 3'-idT) [ARC1375] | 8.8
28 | GCGUGCAGUGCCUUCGGCCGTGCGGTGCCUCCGUCACGC (mixed, 2'-OMe at 1-4,8-18,20,22,27,28,30,33,34,36-39, rest deoxy; PS between 34 and 35; 3'-idT) [ARC1380] | 12
29 | GCGUGCAGUGCCUUCGGCCGTGCGGTGCCUCCGUCACGC (mixed, 2'-OMe at 1-4,8-18,20,22,27,28,30,33,34,36-39, rest deoxy; PS between 7 and 8; 3'-idT) [ARC1365] | 10.8
30 | GCGUGCAGUGCCUUCGGCCGTGCGGTGCCUCCGUCACGC (mixed, 2'-OMe at 1-4,8-18,20,22,27,28,30,33,34,36-39, rest deoxy; PS between 29 and 30; 3'-idT) [ARC1376] | 4.4
31 | GCGUGCAGUGCCUUCGGCCGTGCGGTGCCUCCGUCACGC (mixed, 2'-OMe at 1-4,8-18,20,22,27,28,30,33,34,36-39, rest deoxy; PS between 32 and 33; 3'-idT) [ARC1379] | 10.4
32 | GCGUGCAGUGCCUUCGGCCGTGCGGTGCCUCCGUCACGC (mixed, 2'-OMe at 1-4,8-18,20,22,27,28,30,33,34,36-39, rest deoxy; PS between 24 and 25; 3'-idT) [ARC1372] | 23.5
33 | GCGUGCAGUGCCUUCGGCCGTGCGGTGCCUCCGUCACGC (mixed, 2'-OMe at 1-4,8-18,20,22,27,28,30,33,34,36-39, rest deoxy; PS between 26 and 27; 3'-idT) [ARC1374] | 9.5
34 | GCGUGCAGUGCCUUCGGCCGTGCGGTGCCUCCGUCACGC (mixed, 2'-OMe at 1-4,8-18,20,22,27,28,30,33,34,36-39, rest deoxy; PS between 23 and 24; 3'-idT) [ARC1371] | 8.4
35 | GCGUGCAGUGCCUUCGGCCGTGCGGTGCCUCCGUCACGC (mixed, 2'-OMe at 1-4,8-18,20,22,27,28,30,33,34,36-39, rest deoxy; PS between 22 and 23; 3'-idT) [ARC1370] | 10.1
36 | GCGUGCAGUGCCUUCGGCCGTGCGGTGCCUCCGUCACGC (mixed, 2'-OMe at 1-4,8-18,20,22,27,28,30,33,34,36-39, rest deoxy; PS between 19 and 20; 3'-idT) [ARC1367] | 13.9
37 | GCGUGCAGUGCCUUCGGCCGTGCGGTGCCUCCGUCACGC (mixed, 2'-OMe at 1-4,8-18,20,22,27,28,30,33,34,36-39, rest deoxy; PS between 6 and 7; 3'-idT) [ARC1364] | 8.2
38 | GCGUGCAGUGCCUUCGGCCGTGCGGTGCCUCCGUCACGC (mixed, 2'-OMe at 1-4,8-18,20,22,27,28,30,33,34,36-39, rest deoxy; PS between 5 and 6; 3'-idT) [ARC1363] | 12.7
39 | GCGUGCAGUGCCUUCGGCCGTGCGGTGCCUCCGUCACGC (mixed, 2'-OMe at 1-4,8-18,20,22,27,28,30,33,34,36-39, rest deoxy; PS between 18 and 19; 3'-idT) [ARC1366] | 15.5
40 | GCGUGCAGUGCCUUCGGCCGTGCGGTGCCUCCGUCACGC (mixed, 2'-OMe at 1-4,8-18,20,22,27,28,30,33,34,36-39, rest deoxy; PS between 25 and 26; 3'-idT) [ARC1373] | 7.1
41 | GCGUGCAGUGCCUUCGGCCGTGCGGTGCCUCCGUCACGC (mixed, 2'-OMe at 1-4,8-18,20,22,27,28,30,33,34,36-39, rest deoxy; PS between 35 and 36; 3'-idT) [ARC1381] | 8.7
42 | GCGUGCAGUGCCUUCGGCCGTGCGGTGCCUCCGUCACGC (mixed, 2'-OMe at 1-4,8-18,20,22,27,28,30,33,34,36-39, rest deoxy; PS between 31 and 32; 3'-idT) [ARC1378] | 9.1
